Experimental data taken from PMC11326647, “In vitro reconstitution reveals membrane clustering and RNA recruitment by the enteroviral AAA+ ATPase 2C” (PLOS Pathogens, 2023).

Molecular target: His6-MBP-tagged poliovirus 2C([change]) (residues 1-11, 41-329) (poliovirus type 1 Mahoney) (UniProt P03300)
Assay: mass photometry

His6-MBP-tagged poliovirus 2C([change]) (residues 1-11, 41-329) (from UniProt P03300 1128-1456) (natural protein)
stoichiometry N: 2
